Reference: US20230250158A1

Molecular target: SARS-CoV-2 Spike trimer (recombinant, wild type) (SARS-CoV-2), P0DTC2
Assay: ELISA on plate-adsorbed recombinant Spike
Details: remark: other sources report otherwise

Row | Binder | EC50 (read off the curve)
1 | 22-E7 (antibody, V domains shown) VH: QVQLVESGGGVVQPGTSLRLSCAASGFTFNNYPMFWVRQAPGKGLEWLALISYDGNHKVYADSVKGRFTISRDNAKNTLYLQMHSLRAEDTALYYCASDLSGAEDSWGQGTLVTVSS VL: QSALTQPASVSGSPGQSITISCTGTSSDVGGYNYVSWYQQHPGKAPKLLIYEVSNRPSGVSNRFSGSKSGNTASLTISGLQAEDEADYYCSSYTSSSTWVFGGGTKLTVL | 0.02 mg/L
2 | 22-F7 (antibody, V domains shown) VH: QVQLVESGGGVVQPGRSLRLSCAASGFSFTNYGMHWVRQAPGKGLEWVAVISYDGSIKYYEDSLKGRFTVSRDNSKKTLYLQMNSLRAEDTAVYYCTRERGTGIDYWGLGTLVTVSS VL: QSALTQPASVSGYPGQSITLSCTGTKSDIGAYNYVSWYQQHPGKAPKLMVYDVSNRPSGLSNRFSGSKSDNTASLTISGLQAEDEAHYYCSSYTTSGTVVFGGGTKVTVL | 0.01 mg/L
3 | 2-A6 (antibody, V domains shown) VH: QVTLRESGPALVKPTQTLTLTCTFSGFSLNTRGMSVSWIRQPPGKALEWLALIDWEDDKFYRTSLMTRLTISKDIFKNQVVLTMTNVDPVDTGTYYCARTYSVGVKYFGMDVWGQGTTVTVSS VL: SSELTQDPAVSVALGQTVRITCQGDSLRNYYASWYRQEPGQAPILLIYGGNYRPSGIPDRFSGSSSGNTASLTITGAQAEDEADYYCNSRDSSGNHVVFGGGTKLTVL | 0.007 mg/L
